# B1: c19s130Fc (Fc fusion)
# chain: ELLDPCGYISPESPVVQLHSNFTAVCVLKEKCMDYFHVNANYIVWKTNHFTIPKEQYTIINRTASSVTFTDIASLNIQLTCNILTFGQLEQNVYGITIISGLPPEKPKNLSCIVNEGKKMRCEWDGGRETHLETNFTLKSEWATHKFADCKAKRDTPTSCTVDYSTVYFVNIEVWVEAENALGKVTSDHINFDPVYKVKPNPPHNLSVINSEELSSILKLTWTNPSIKSVIILKYNIQYRTKDASTWSQIPPEDTASTRSSFTVQDLKPFTEYVFRIRCMKEDGKGYWSDWSEEASGITYEDDVQFVESGGGSVHAGGSLRLNCATSGYIYSTYCMGWFRQAPGKEREGVAHIYTNSGRTYYADSVKGRFTISQDNAKNTVYLQMNSLKPEDTAIYYCAARPSIRCASFSATEYKDWGQGTQVTVSSTGGGGSGGGGSGGGGTGQVQLQESGGGLVQAGGSLRLSCAASGRTFSEYAMGWFRQAPGKEREFVATISWSGGSTYYTDSVKGRFTISRDNAKNTVYLQMNSLKPDDTAVYYCAAAGLGTVVSEWDYDYDYWGQGTQVTVSS
# Molecular target: hyper-IL-6 (HIL-6)
# Test: SPR
# Sequence of hyper-IL-6 (HIL-6) (A0N0L4 whole entry): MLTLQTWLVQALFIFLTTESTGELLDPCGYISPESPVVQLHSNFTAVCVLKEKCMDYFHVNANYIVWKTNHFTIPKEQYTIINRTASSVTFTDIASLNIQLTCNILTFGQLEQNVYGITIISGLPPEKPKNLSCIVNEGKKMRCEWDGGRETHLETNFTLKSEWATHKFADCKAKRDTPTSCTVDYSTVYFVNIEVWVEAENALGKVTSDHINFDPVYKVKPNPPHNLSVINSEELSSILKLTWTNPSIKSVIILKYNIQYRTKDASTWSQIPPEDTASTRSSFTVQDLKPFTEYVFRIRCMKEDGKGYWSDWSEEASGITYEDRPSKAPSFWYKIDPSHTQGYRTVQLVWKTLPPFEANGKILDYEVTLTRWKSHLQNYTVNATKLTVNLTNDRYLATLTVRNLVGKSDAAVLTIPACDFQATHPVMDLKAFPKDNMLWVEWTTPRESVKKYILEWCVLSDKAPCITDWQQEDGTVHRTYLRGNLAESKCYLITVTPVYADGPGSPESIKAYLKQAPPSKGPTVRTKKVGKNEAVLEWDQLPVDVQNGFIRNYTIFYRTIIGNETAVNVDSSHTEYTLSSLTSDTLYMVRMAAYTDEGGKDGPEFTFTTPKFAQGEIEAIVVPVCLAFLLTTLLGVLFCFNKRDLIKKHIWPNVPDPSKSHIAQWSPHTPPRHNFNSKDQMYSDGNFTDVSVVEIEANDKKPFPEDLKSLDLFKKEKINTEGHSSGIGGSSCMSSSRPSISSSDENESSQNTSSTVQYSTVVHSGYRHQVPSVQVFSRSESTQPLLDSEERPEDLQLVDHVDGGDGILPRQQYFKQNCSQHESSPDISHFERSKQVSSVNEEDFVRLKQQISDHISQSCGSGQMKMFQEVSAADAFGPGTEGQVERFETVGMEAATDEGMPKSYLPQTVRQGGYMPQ
binder,measurement,value
B1,Kd,0.055 nM
same,koff,7.1e-05 s⁻¹
